Columns and labels:
full length human DLL4 [1] = biological target: T1, full length human DLL4 (human, UniProt Q9NR61 27-685); assay: FACS competition vs 0.25 µg/ml human Notch1/Fc, HEK293 cells with human DLL4
T1 construct: whole, on cells; also called native DLL4 expressed in HEK293 cells
Experimental: Further experiments were performed on selected antibodies using HEK293 cells that were stably transfected with either human, mouse or cynomolgus monkey DLL4 using retroviral constructs. In these experiments, anti-DLL4 antibodies (final concentration: 10-0.01 μg/ml) diluted in PBS containing 2% FCS were added to DLL4-expressing HEK 293 cells (50000 cells/well diluted in PBS containing 2% FCS) and incubated for 1 h at 4° C. Subsequently, Alexa-647 labeled human, rat or APC labeled mouse Notch1/Fc (e.g. R&D Systems, catalog #3647-TK-050, 1057-TK-050, 5267-TK-050, respectively) was added at a final concentration of 0.01-0.5 μg/ml and plates were incubated for a further 2 h at 4° C. prior to washing and reading on a FACSCalibur instrument.

full length human DLL4 [2] = biological target: T1, full length human DLL4; assay: FMAT competition, supernatant vs Alexa-647 human Notch1/Fc, 293T cells with human DLL4; FMAT competition with Alexa-647 human Notch1/Fc, native human DLL4 on 293T cells, 4 C, n = 3
Experimental: Transfected and untransfected 239T cells were reconstituted in PBS containing 2% FCS and 5000 transfected and 17500 non-transfected cells were plated in 20 μl into wells of a 384-well tissue culture plate (Corning Costar, catalog #3712). Subsequently, 20 μl of hybridoma supernatant was added and plates were incubated at 4° C. for 1 h, at which time 20 μl of Alexa-647 labeled human Notch1/Fc was added at a final concentration of 6.7 ng/ml. After a further 3 h incubation at 4° C., the amount of bound Notch1/Fc was determined by reading the fluorescence in each well using an FMAT 8200 instrument (Applied Biosystems). Results are expressed as % inhibitions with the minimum inhibition in the assay being determined by the effects of non-DLL4 binding supernatants prepared in a similar way as described in example 2, and the maximum inhibition being defined as the signal obtained in the presence of a saturating concentration of unlabeled Notch1/Fc. N.T.=not tested

T1 sequence (Q9NR61 27-685): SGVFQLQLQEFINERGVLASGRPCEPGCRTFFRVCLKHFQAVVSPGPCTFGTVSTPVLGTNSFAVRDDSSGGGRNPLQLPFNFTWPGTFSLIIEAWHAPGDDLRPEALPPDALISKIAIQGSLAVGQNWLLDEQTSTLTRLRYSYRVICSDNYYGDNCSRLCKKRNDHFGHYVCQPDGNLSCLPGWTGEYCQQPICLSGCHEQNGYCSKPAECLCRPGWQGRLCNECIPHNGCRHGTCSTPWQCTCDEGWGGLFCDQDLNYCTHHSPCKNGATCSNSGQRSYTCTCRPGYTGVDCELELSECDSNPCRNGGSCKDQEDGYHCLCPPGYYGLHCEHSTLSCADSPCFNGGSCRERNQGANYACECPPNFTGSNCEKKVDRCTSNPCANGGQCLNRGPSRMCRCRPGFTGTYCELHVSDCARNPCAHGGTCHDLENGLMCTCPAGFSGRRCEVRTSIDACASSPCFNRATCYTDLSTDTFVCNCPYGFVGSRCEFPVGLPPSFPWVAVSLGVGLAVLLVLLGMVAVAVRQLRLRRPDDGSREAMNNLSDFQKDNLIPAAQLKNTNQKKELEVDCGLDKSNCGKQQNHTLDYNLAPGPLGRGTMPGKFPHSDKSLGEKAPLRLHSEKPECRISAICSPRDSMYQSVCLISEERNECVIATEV

Row | Binder | IC50 (full length human DLL4 [1]) | % inhibition n = 3 (full length human DLL4 [2])
1 | 4B4 (antibody, IgG4, V domains shown, Fully human; used for IgG4 rows and where no isotype is printed; also called 4B4 IgG4; 4B4.1) VH: QVLLIQSGAEVKKPGASVQVSCKASGYTFTNYGVIWVRQAPGQGLEYMGWISAYNGNTNYAQKLQDRVTMTSDTSTTTAYMELRSLRSDDTAVYYCARELGSSFDYWGQGTLVTVSS VL: SYELTQPPSVSVSPGQTARITCSGDALPKKYAYWYQQKSGQAPVLVIYEDIKRPSGIPERFSGSSSGTMATLTISGAQVEDEADYYCFSTDNSGDHSVFGGGTKLTVL | 1.62 nM | 148%
2 | 21H3 (antibody, IgG4, V domains shown, Fully human; used for IgG4 rows and where no isotype is printed; also called 21H3 IgG4) VH: QVQLVQSGAEVKKPGASVKVSCKASGYTFTNYGITWVRQAPGQGPEWMGWISAYNGNTNYAQKLQDRVTVTTDTSTSTAYMELRSLRSDDTAVYYCARDRVPRIPVTTEAFDIWGQGTMVTVSS VL: QSVLTQPPSASGTPGQRVTISCSGSSSNIGSYFVYWYQQLPGTAPKLLIYRNNQRPSGVPDRFSGSESGTSASLAISGLRSEDEADYYCAAWDDSLSGHWVFGGGTRLTVL | 1.59 nM | 140%
